The values that follow come from patent publication US11795460B2, “Compositions and methods for TTR gene editing and treating ATTR amyloidosis” (Intellia Therapeutics, Inc., priority 2017, dated 2023).

Strand notation (5' to 3'): a small letter for the sugar, then the base; units joined by * are phosphorothioate-linked, units joined directly phosphodiester-linked; [ ] holds rarer units or linkages, { } end groups; capitals alone tell only the bases. m = 2'-O-methyl; r = 2'-OH (RNA)

Series [1] has as its system TTR. In words: TTR editing in primary cyno hepatocytes electroporated with Spy Cas9 protein and sgRNAs (Tables 14, 15). It is filed as cell-based, cynomolgus monkey. The essentials:
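Spy Cas9 RNPs with boiled sgRNAs electroporated (Lonza P3 buffer, program EX-147) into primary cynomolgus hepatocytes; harvest at 24, 48 or 72 h. TTR target site PCR-amplified and sequenced on Illumina MiSeq, reads aligned to mf5; percent editing is reads with indels or substitutions over total reads.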

In series [2] the test system is TTR. In words: EC50 and maximum editing in primary human hepatocytes treated with LNP formulated U-depleted Spy Cas9 mRNA and sgRNAs (Tables 19, 21). Further details: key: % of sequence reads with indels or substitutions over total reads. Conditions: dose response. It is filed as cell-based. The procedure, abridged:
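Primary human hepatocytes, plated 24 h, received LNPs carrying Cas9 mRNA plus TTR sgRNA, preincubated 5 min in media with 6% cyno serum, in an 8-point 3-fold series starting at 300 ng mRNA; lysed 72 h later; editing determined as indel/substitution read fraction by amplicon MiSeq sequencing.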

Series [3] concerns TTR. The experiment in a line: EC50 and maximum editing in primary cyno hepatocytes treated with LNP formulated U-depleted Spy Cas9 mRNA and sgRNAs (Tables 20, 22). It is filed as cell-based, cynomolgus monkey. More on the design: key: % of sequence reads with indels or substitutions over total reads. Conditions: dose response. The essentials:
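Primary cyno hepatocytes plated 24 h before treatment with cross-flow LNPs (PD-10 purified) carrying U-depleted Spy Cas9 mRNA and sgRNA, preincubated 5 min in maintenance medium with 6% cyno serum; 8-point 3-fold dose series from 300 ng mRNA. Cells lysed 72 h later; editing = indel/substitution reads over total reads by amplicon MiSeq sequencing.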

Setting [4] is: Table 14, primary cyno hepatocytes electroporated with Spy Cas9 protein (RNP) and sgRNAs.
[5] abbreviates: Table 19, LNP with U-depleted Spy Cas9 mRNA and human specific sgRNAs.
Setting [6] is: Table 20, LNP with U-depleted Spy Cas9 mRNA and human specific sgRNAs.
The mark [7] stands for this setting: Table 15, primary cyno hepatocytes electroporated with Spy Cas9 protein (RNP) and cyno specific sgRNAs.

B1: G000489: TTR sgRNA modified sequence, Human, SEQ ID No. 96; guide sequence of CR003344 (nucleic acid)
guide: mU*mU*mU*rGrArCrCrArUrCrArGrArGrGrArCrArCrUrGrUrUrUrUrArGrAmGmCmUmAmGmAmAmAmUmAmGmCrArArGrUrUrArArArArUrArArGrGrCrUrArGrUrCrCrGrUrUrArUrCrAmAmCmUmUmGmAmAmAmAmAmGmUmGmGmCmAmCmCmGmAmGmUmCmGmGmUmGmCmU*mU*mU*mU
Turning to B1, in series [1] (setting [4]), the “Avg % Deletion” value turned out to be 14.17%, the “Avg % Edit” value worked out at 67.53% and the “Avg % Insert” value was 53.53%. The “Max Editing” value in series [2] (setting [5]) amounted to 86.33. Also, the “Max Editing” value in series [3] (setting [6]) stood at 89.21.

B2: G000482: TTR sgRNA modified sequence, Human, SEQ ID No. 89; guide sequence of CR003365 (nucleic acid)
guide: mU*mG*mU*rArGrArArGrGrGrArUrArUrArCrArArArGrGrUrUrUrUrArGrAmGmCmUmAmGmAmAmAmUmAmGmCrArArGrUrUrArArArArUrArArGrGrCrUrArGrUrCrCrGrUrUrArUrCrAmAmCmUmUmGmAmAmAmAmAmGmUmGmGmCmAmCmCmGmAmGmUmCmGmGmUmGmCmU*mU*mU*mU
As to B2, in series [1] (setting [4]), the “Avg % Deletion” value stood at 20.03%, the “Avg % Edit” value was determined as 75.17% and the “Avg % Insert” value is given as 55.23%. Further, the “Max Editing” value in series [2] (setting [5]) is 97.02. Further, the “Max Editing” value in series [3] (setting [6]) amounted to 97.47.

B3: G000493: TTR sgRNA modified sequence, Human, SEQ ID No. 100; guide sequence of CR003368 (nucleic acid)
guide: mA*mA*mG*rUrGrCrCrUrUrCrCrArGrUrArArGrArUrUrGrUrUrUrUrArGrAmGmCmUmAmGmAmAmAmUmAmGmCrArArGrUrUrArArArArUrArArGrGrCrUrArGrUrCrCrGrUrUrArUrCrAmAmCmUmUmGmAmAmAmAmAmGmUmGmGmCmAmCmCmGmAmGmUmCmGmGmUmGmCmU*mU*mU*mU
Consider B3, for which, in series [1] (setting [4]), the “Avg % Deletion” value amounted to 2.10%, the “Avg % Edit” value was 50.13% and the “Avg % Insert” value turned out to be 48.07%. Further, the “Max Editing” value in series [2] (setting [5]) was found to be 63.95. In series [3] (setting [6]), the “Max Editing” value amounted to 61.15.

B4: G000502: TTR Cyno specific sgRNA modified sequence, SEQ ID No. 114; guide sequence of CR000689; cross homologous between mouse and cyno (nucleic acid)
guide: mA*mC*mA*rCrArArArUrArCrCrArGrUrCrCrArGrCrGrGrUrUrUrUrArGrAmGmCmUmAmGmAmAmAmUmAmGmCrArArGrUrUrArArArArUrArArGrGrCrUrArGrUrCrCrGrUrUrArUrCrAmAmCmUmUmGmAmAmAmAmAmGmUmGmGmCmAmCmCmGmAmGmUmCmGmGmUmGmCmU*mU*mU*mU
Turning to B4, in series [1] (setting [7]), the “Avg % Deletion” value was 81.27%, the “Avg % Edit” value stood at 95.10% and the “Avg % Insert” value is 13.97%. For the same molecule, in series [2] (Table 21, LNP with U-depleted Spy Cas9 mRNA and cyno specific sgRNAs), the “Max Editing” value amounted to 91.50. In series [3] (Table 22, LNP with U-depleted Spy Cas9 mRNA and cyno specific sgRNAs), the “Max Editing” value is on record as 100.05.

B5: G000480: TTR sgRNA modified sequence, Human, SEQ ID No. 87; guide sequence of CR003353 (nucleic acid)
guide: mA*mA*mA*rGrGrCrUrGrCrUrGrArUrGrArCrArCrCrUrGrUrUrUrUrArGrAmGmCmUmAmGmAmAmAmUmAmGmCrArArGrUrUrArArArArUrArArGrGrCrUrArGrUrCrCrGrUrUrArUrCrAmAmCmUmUmGmAmAmAmAmAmGmUmGmGmCmAmCmCmGmAmGmUmCmGmGmUmGmCmU*mU*mU*mU
Turning to B5, in series [1] (setting [4]), the “Avg % Deletion” value stood at 0.37%, the “Avg % Edit” value stood at 10.20% and the “Avg % Insert” value came out at 9.83%. Also, the “Max Editing” value in series [2] (setting [5]) was determined as 98.69. In addition, the “Max Editing” value in series [3] (setting [6]) was found to be 20.32.

B6: G000500: TTR sgRNA modified sequence, Human, SEQ ID No. 107; guide sequence of CR003337 (nucleic acid)
guide: mC*mC*mA*rGrUrCrCrArGrCrArArGrGrCrArGrArGrGrGrUrUrUrUrArGrAmGmCmUmAmGmAmAmAmUmAmGmCrArArGrUrUrArArArArUrArArGrGrCrUrArGrUrCrCrGrUrUrArUrCrAmAmCmUmUmGmAmAmAmAmAmGmUmGmGmCmAmCmCmGmAmGmUmCmGmGmUmGmCmU*mU*mU*mU
With B6, in series [1] (setting [4]), the “Avg % Deletion” value is 2.63%, the “Avg % Edit” value is recorded as 45.20% and the “Avg % Insert” value amounted to 42.60%. In series [2] (setting [5]), the “Max Editing” value is 88.70. Moreover, the “Max Editing” value in series [3] (setting [6]) is on record as 58.04.

B7: G000490: TTR sgRNA modified sequence, Human, SEQ ID No. 97; guide sequence of CR003366 (nucleic acid)
guide: mA*mA*mA*rUrArGrArCrArCrCrArArArUrCrUrUrArCrGrUrUrUrUrArGrAmGmCmUmAmGmAmAmAmUmAmGmCrArArGrUrUrArArArArUrArArGrGrCrUrArGrUrCrCrGrUrUrArUrCrAmAmCmUmUmGmAmAmAmAmAmGmUmGmGmCmAmCmCmGmAmGmUmCmGmGmUmGmCmU*mU*mU*mU
As to B7, in series [1] (setting [4]), the “Avg % Deletion” value was 7.27%, the “Avg % Edit” value was 61.67% and the “Avg % Insert” value is 54.47%. The “Max Editing” value in series [2] (setting [5]) was 94.16. Moreover, the “Max Editing” value in series [3] (setting [6]) is on record as 90.76.

B8: G000499: TTR sgRNA modified sequence, Human, SEQ ID No. 106; guide sequence of CR005303 (nucleic acid)
guide: mU*mG*mA*rArUrCrCrArArGrUrGrUrCrCrUrCrUrGrArGrUrUrUrUrArGrAmGmCmUmAmGmAmAmAmUmAmGmCrArArGrUrUrArArArArUrArArGrGrCrUrArGrUrCrCrGrUrUrArUrCrAmAmCmUmUmGmAmAmAmAmAmGmUmGmGmCmAmCmCmGmAmGmUmCmGmGmUmGmCmU*mU*mU*mU
In the case of B8, in series [1] (setting [4]), the “Avg % Deletion” value is listed as 1.43%, the “Avg % Edit” value turned out to be 83.40% and the “Avg % Insert” value came out at 82.00%. For the same molecule, the “Max Editing” value in series [2] (setting [5]) turned out to be 96.31. Also, the “Max Editing” value in series [3] (setting [6]) is listed as 74.94.

B9: G000488: TTR sgRNA modified sequence, Human, SEQ ID No. 95; guide sequence of CR003346 (nucleic acid)
guide: mA*mA*mA*rGrUrUrCrUrArGrArUrGrCrUrGrUrCrCrGrGrUrUrUrUrArGrAmGmCmUmAmGmAmAmAmUmAmGmCrArArGrUrUrArArArArUrArArGrGrCrUrArGrUrCrCrGrUrUrArUrCrAmAmCmUmUmGmAmAmAmAmAmGmUmGmGmCmAmCmCmGmAmGmUmCmGmGmUmGmCmU*mU*mU*mU
Turning to B9, in series [1] (setting [4]), the “Avg % Deletion” value worked out at 4.27%, the “Avg % Edit” value was 9.63% and the “Avg % Insert” value was 5.37%. Further, in series [2] (setting [5]), the “Max Editing” value was determined as 95.83. Further, in series [3] (setting [6]), the “Max Editing” value is 21.63.

B10: G000481: TTR sgRNA modified sequence, Human, SEQ ID No. 88; guide sequence of CR003345 (nucleic acid)
guide: mU*mC*mU*rArGrArArCrUrUrUrGrArCrCrArUrCrArGrGrUrUrUrUrArGrAmGmCmUmAmGmAmAmAmUmAmGmCrArArGrUrUrArArArArUrArArGrGrCrUrArGrUrCrCrGrUrUrArUrCrAmAmCmUmUmGmAmAmAmAmAmGmUmGmGmCmAmCmCmGmAmGmUmCmGmGmUmGmCmU*mU*mU*mU
As to B10, in series [1] (setting [4]), the “Avg % Deletion” value was 35.50%, the “Avg % Edit” value was found to be 69.13% and the “Avg % Insert” value amounted to 33.73%. For the same molecule, the “Max Editing” value in series [2] (setting [5]) turned out to be 87.05. For the same molecule, the “Max Editing” value in series [3] (setting [6]) stood at 95.07.
